Source: patent US20110300138A1 (published 2011)

Assays:
Assay in all cases: cell-based or functional assay
[1] = target: human TSHR (wild type, full length) expressed in CHO cells (human) (UniProt P16473)
[2] = target: human TSH receptor (full length, wild type) expressed in CHO cells (human) (UniProt P16473)
[3] = target: human TSHR (thyroid stimulating hormone receptor) expressed in transfected CHO cells (human) (UniProt P16473)
[4] = target: human TSH receptor (full length, wild type) expressed in CHO cells (human) (UniProt P16473); remark: listed apart in the source

- % Inhibition of T8 serum stimulation; 0.01 µg/mL 9D33 IgG [1]: 12%
- % Inhibition of T8 serum stimulation; 0.1 µg/mL 9D33 IgG [1]: 56%
- % Inhibition of T8 serum stimulation; 1 µg/mL 9D33 IgG [1]: 91%
- % Inhibition of T8 serum stimulation; 10 µg/mL 9D33 IgG [1]: 93%
- % Inhibition of T8 serum stimulation; 100 µg/mL 9D33 IgG [1]: 93%
- Cyclic AMP concentration; 0.01 µg/mL 9D33 IgG + T8 [1]: 45.8 pmol/mL
- Cyclic AMP concentration; 0.1 µg/mL 9D33 IgG + T8 [1]: 22.9 pmol/mL
- Cyclic AMP concentration; 1 µg/mL 9D33 IgG + T8 [1]: 4.7 pmol/mL
- Cyclic AMP concentration; 10 µg/mL 9D33 IgG + T8 [1]: 3.7 pmol/mL
- Cyclic AMP concentration; 100 µg/mL 9D33 IgG + T8 [1]: 3.6 pmol/mL
- % Inhibition; T4 serum + 100 µg/mL 9D33 [2]: 94.8%
- % Inhibition; T5 serum + 100 µg/mL 9D33 [2]: 95.6%
- % Inhibition; T6 serum + 100 µg/mL 9D33 [2]: 94%
- Cyclic AMP concentration; 100 µg/mL 9D33 alone [2]: 2 pmol/mL
- Cyclic AMP concentration; HBD + 100 µg/mL 9D33 [2]: 3.9 pmol/mL
- Cyclic AMP concentration; T4 serum + 100 µg/mL 9D33 [2]: 4.1 pmol/mL
- Cyclic AMP concentration; T5 serum + 100 µg/mL 9D33 [2]: 2.9 pmol/mL
- Cyclic AMP concentration; T6 serum + 100 µg/mL 9D33 [2]: 5 pmol/mL
- % Inhibition; 3 ng/mL M22 IgG + 0.001 µg/mL 9D33 IgG [3]: 9%
- % Inhibition; 3 ng/mL M22 IgG + 0.01 µg/mL 9D33 IgG [3]: 2%
- % Inhibition; 3 ng/mL M22 IgG + 0.1 µg/mL 9D33 IgG [3]: 66%
- % Inhibition; 3 ng/mL M22 IgG + 1 µg/mL 9D33 IgG [3]: 93%
- % Inhibition; 3 ng/mL M22 IgG + 10 µg/mL 9D33 IgG [3]: 94%
- % Inhibition; 3 ng/mL M22 IgG + 100 µg/mL 9D33 IgG [3]: 95%
- Cyclic AMP concentration; 3 ng/mL M22 IgG + 0.001 µg/mL 9D33 IgG [3]: 19.4 pmol/mL
- Cyclic AMP concentration; 3 ng/mL M22 IgG + 0.01 µg/mL 9D33 IgG [3]: 21 pmol/mL
- Cyclic AMP concentration; 3 ng/mL M22 IgG + 0.1 µg/mL 9D33 IgG [3]: 7.19 pmol/mL
- Cyclic AMP concentration; 3 ng/mL M22 IgG + 1 µg/mL 9D33 IgG [3]: 1.48 pmol/mL
- Cyclic AMP concentration; 3 ng/mL M22 IgG + 10 µg/mL 9D33 IgG [3]: 1.2 pmol/mL
- Cyclic AMP concentration; 3 ng/mL M22 IgG + 100 µg/mL 9D33 IgG [3]: 1.01 pmol/mL
- Cyclic AMP concentration; 100 µg/mL 9D33 IgG [3]: 1.31 pmol/mL
- % Inhibition; T7 serum + 100 µg/mL 9D33 IgG [4]: 93%
- % Inhibition; T8 serum + 100 µg/mL 9D33 IgG [4]: 95%
- % Inhibition; T9 serum + 100 µg/mL 9D33 IgG [4]: 87.2%
- Cyclic AMP concentration; 100 µg/mL 9D33 IgG alone [4]: 2.4 pmol/mL
- Cyclic AMP concentration; HBD + 100 µg/mL 9D33 IgG [4]: 5.4 pmol/mL
- Cyclic AMP concentration; T7 serum + 100 µg/mL 9D33 IgG [4]: 6.3 pmol/mL
- Cyclic AMP concentration; T8 serum + 100 µg/mL 9D33 IgG [4]: 4.3 pmol/mL
- Cyclic AMP concentration; T9 serum + 100 µg/mL 9D33 IgG [4]: 7.2 pmol/mL
Substance: 9D33 IgG (antibody)
